Test [1] deals with soluble EGFR (sEGFR) (UniProt P00533). The experiment in a line: SPR; Biacore 2000; sEGFR immobilised on a CM5 chip at the lower amount (1073 to 1122 RU); PBS with 0.005% Tween20; scFv monomer or dimer injected for 120 s at 10 to 250 nM; global fit, 1:1 Langmuir model.
For test [2] the target is unchanged. Kind of test: SPR; Biacore 2000; sEGFR immobilised on a CM5 chip at the higher amount (2605 to 2833 RU); PBS with 0.005% Tween20; scFv monomer or dimer injected for 120 s at 10 to 250 nM; global fit, 1:1 Langmuir model.
Test [3] has the same target. The experiment in a line: SPR; Biacore 2000; sEGFR immobilised on a CM5 chip (amount not given for Tables 2 and 5); running buffer PBS with 0.005% Tween20; scFv monomer or dimer injected for 120 s at 10 to 250 nM; global fit, 1:1 Langmuir model.
Test [4] addresses T1, soluble EGFR (sEGFR) (Homo sapiens (assumed; EGFR on human …, UniProt P00533).
T1 construct: soluble epidermal growth factor receptor (sEGFR); also called epidermal growth factor receptor; immobilized EGFR; source: prepared as described previously [28]
The experiment in a line: SPR; Biacore 2000; sEGFR immobilised on a CM5 chip at the lower amount (1073 to 1122 RU); PBS with 0.005% Tween20; scFv monomer or dimer injected for 120 s at 10 to 250 nM; global fit, 1:1 Langmuir model. Particulars: both partners purified.

The target of test [5] is T1, soluble EGFR (sEGFR). Kind of test: SPR; Biacore 2000; sEGFR immobilised on a CM5 chip at the higher amount (2605 to 2833 RU); PBS with 0.005% Tween20; scFv monomer or dimer injected for 120 s at 10 to 250 nM; global fit, 1:1 Langmuir model. The following applies: both partners purified.
Test [6] addresses T1, soluble EGFR (sEGFR). Kind of test: SPR; Biacore 2000; sEGFR immobilised on a CM5 chip (amount not given for Tables 2 and 5); running buffer PBS with 0.005% Tween20; scFv monomer or dimer injected for 120 s at 10 to 250 nM; global fit, 1:1 Langmuir model. The following applies: both partners purified.
The target in a further test is T2, EGFR on A431 cells (Homo sapiens (A431 cells), UniProt P00533).
T2 construct: epidermal growth factor receptor on A431, a human epidermoid carcinoma line; also called target-expressing cells; A431 (EGFR-positive tumor cell line); source: endogenous, on A431 cells
Kind of test: flow cytometry on cells; competitive binding: 10^6 A431 cells mixed with non-labeled scFv or dimer (50 pmol), washed, then various amounts of FITC-labeled wild-type h528 scFv added; on ice. The following applies: one partner purified.

Regarding “tail–tail bivalent h528 scFv dimer with C6 linker”, in the test with soluble EGFR (sEGFR) [1], the Kd was 18 nM, the koff turned out to be 0.0012 s⁻¹ and the kon was determined as 62000 M⁻¹ s⁻¹. In the test with soluble EGFR (sEGFR) [2], the dissociation constant (Kd) is 23 nM, the koff was 0.0015 s⁻¹ and the kon came out at 63000 M⁻¹ s⁻¹.
In the test with soluble EGFR (sEGFR) [1], “side–tail bivalent h528 scFv dimer with C1 linker” registered a Kd of 149 nM, a koff of 0.005 s⁻¹ and a kon of 34000 M⁻¹ s⁻¹. In addition, in the test with soluble EGFR (sEGFR) [2], the Kd stood at 109 nM, the koff is 0.0047 s⁻¹ and the kon came out at 43000 M⁻¹ s⁻¹.
With “side–side bivalent h528 scFv dimer with C6 linker”, the Kd with soluble EGFR (sEGFR) [2] stood at 34 nM.
Regarding “side–side bivalent h528 scFv dimer with C1 linker”, the dissociation constant (Kd) in the test with soluble EGFR (sEGFR) [1] was 78 nM.
The same measure, in the same setting: as for “side–tail bivalent h528 scFv dimer with C6 linker”, the figure is 159 nM.

B1: wild-type humanized 528 (h528) scFv (scFv, V domains shown)
VH: QVQLVQSGAEVKKPGASVKVSCKASGYTFTSYWMHWVRQAPGQGLEWMGNIYPGSGGTNYAEKFKNRVTMTRDTSISTAYMELSRLRSDDTAVYYCARSGGPYFFDYWGQGTLVTVSS
VL: DIVMTQSPLSLPVTPGEPASISCRSSQNIVHNNGITYLEWYLQKPGQSPQLLIYKVSDRFSGVPDRFSGSGSGTDFTLKISRVEAEDVGVYYCFQGSHIPPTFGQGTKVEIK
With B1, in the test with soluble EGFR (sEGFR) [3], the dissociation constant Kd worked out at 26 nM, the dissociation rate constant (koff) is 0.0052 s⁻¹ and the kon was found to be 196000 M⁻¹ s⁻¹.

B2: LK103-0K h528 scFv (scFv, V domains shown)
VH: QVQLVQSGAEVAEPGASVQVSCAASGYTFTSYWMHWVRQAPGQGLEWMGNIYPGSGGTNYAEEFQNRVTMTRDTSISTAYMELSRLRSDDTAVYYCARSGGPYFFDYWGQGTLVTVSS
VL: DIVMTQSPLSLPVTPGEPASISCRSSQNIVHNNGITYLEWYLQRPGQSPQLLIYQVSDRFSGVPDRFSGSGSGTDFTLTISRVEAEDVGVYYCFQGSHIPPTFGQGTKVEIE
notes: linker (GGGGS)3; lysine kept at L103; also called LK103-0K scFv
B2: in the test with soluble EGFR (sEGFR) [4], the Kd was determined as 221 nM, the koff was found to be 0.0086 s⁻¹ and the kon was determined as 39000 M⁻¹ s⁻¹. In the test with soluble EGFR (sEGFR) [5], the Kd came out at 207 nM, the koff was found to be 0.0089 s⁻¹ and the kon worked out at 43000 M⁻¹ s⁻¹. In the test with soluble EGFR (sEGFR) [6], this molecule showed a Kd of 205 nM, a koff of 0.0086 s⁻¹ and a kon of 42000 M⁻¹ s⁻¹.

B3: FITC-labeled wild-type h528 scFv (scFv, V domains shown)
VH: QVQLVQSGAEVKKPGASVKVSCKASGYTFTSYWMHWVRQAPGQGLEWMGNIYPGSGGTNYAEKFKNRVTMTRDTSISTAYMELSRLRSDDTAVYYCARSGGPYFFDYWGQGTLVTVSS
VL: DIVMTQSPLSLPVTPGEPASISCRSSQNIVHNNGITYLEWYLQKPGQSPQLLIYKVSDRFSGVPDRFSGSGSGTDFTLKISRVEAEDVGVYYCFQGSHIPPTFGQGTKVEIK
notes: linker (GGGGS)3; m4 with a fluorescein label; also called fluorescently labeled wild-type scFv; labeled wild-type scFv
Consider B3, for which the binding result with EGFR on A431 cells is “binds”.

B4: HK19-0K h528 scFv (scFv, V domains shown)
VH: QVQLVQSGAEVAEPGASVKVSCAASGYTFTSYWMHWVRQAPGQGLEWMGNIYPGSGGTNYAEEFQNRVTMTRDTSISTAYMELSRLRSDDTAVYYCARSGGPYFFDYWGQGTLVTVSS
VL: DIVMTQSPLSLPVTPGEPASISCRSSQNIVHNNGITYLEWYLQRPGQSPQLLIYQVSDRFSGVPDRFSGSGSGTDFTLTISRVEAEDVGVYYCFQGSHIPPTFGQGTEVEIE
notes: lysine kept at H19; linker (GGGGS)3; 0K scFv with the 19th residue of VH returned to lysine; also called HK19-0K scFv; KH19-0K scFv
In the test with soluble EGFR (sEGFR) [4], B4 yielded a Kd of 144 nM, a koff of 0.0075 s⁻¹ and a kon of 52000 M⁻¹ s⁻¹. In the test with soluble EGFR (sEGFR) [5], this molecule gave a Kd of 108 nM, a koff of 0.0075 s⁻¹ and a kon of 69000 M⁻¹ s⁻¹. In the test with soluble EGFR (sEGFR) [6], this molecule yielded a Kd of 135 nM, a koff of 0.0079 s⁻¹ and a kon of 60000 M⁻¹ s⁻¹.

B5: 0K h528 scFv (scFv, V domains shown)
VH: QVQLVQSGAEVAEPGASVQVSCAASGYTFTSYWMHWVRQAPGQGLEWMGNIYPGSGGTNYAEEFQNRVTMTRDTSISTAYMELSRLRSDDTAVYYCARSGGPYFFDYWGQGTLVTVSS
VL: DIVMTQSPLSLPVTPGEPASISCRSSQNIVHNNGITYLEWYLQRPGQSPQLLIYQVSDRFSGVPDRFSGSGSGTDFTLTISRVEAEDVGVYYCFQGSHIPPTFGQGTEVEIE
notes: linker (GGGGS)3; it looks like Kabat numbering; also called h528 scFv without lysine in the CDR and FR
Regarding B5, in the test with soluble EGFR (sEGFR) [6], binding was characterised by a dissociation constant (Kd) of 137 nM, the koff is 0.0082 s⁻¹ and the kon was found to be 60000 M⁻¹ s⁻¹.

B6: 0KCDR h528 scFv (scFv, V domains shown)
VH: QVQLVQSGAEVKKPGASVKVSCKASGYTFTSYWMHWVRQAPGQGLEWMGNIYPGSGGTNYAEEFQNRVTMTRDTSISTAYMELSRLRSDDTAVYYCARSGGPYFFDYWGQGTLVTVSS
VL: DIVMTQSPLSLPVTPGEPASISCRSSQNIVHNNGITYLEWYLQKPGQSPQLLIYQVSDRFSGVPDRFSGSGSGTDFTLKISRVEAEDVGVYYCFQGSHIPPTFGQGTKVEIK
notes: linker (GGGGS)3; it looks like Kabat numbering; also called 0KCDR scFv
As to B6, in the test with soluble EGFR (sEGFR) [6], the Kd is 38 nM, the koff was determined as 0.0054 s⁻¹ and the kon stood at 141000 M⁻¹ s⁻¹.
